Molecular target: murine αVβ3/5 integrin (murine, UniProt P43406 31-1044)
Assay: cell-based or functional assay

Chain of murine αVβ3/5 integrin (P43406 31-1044): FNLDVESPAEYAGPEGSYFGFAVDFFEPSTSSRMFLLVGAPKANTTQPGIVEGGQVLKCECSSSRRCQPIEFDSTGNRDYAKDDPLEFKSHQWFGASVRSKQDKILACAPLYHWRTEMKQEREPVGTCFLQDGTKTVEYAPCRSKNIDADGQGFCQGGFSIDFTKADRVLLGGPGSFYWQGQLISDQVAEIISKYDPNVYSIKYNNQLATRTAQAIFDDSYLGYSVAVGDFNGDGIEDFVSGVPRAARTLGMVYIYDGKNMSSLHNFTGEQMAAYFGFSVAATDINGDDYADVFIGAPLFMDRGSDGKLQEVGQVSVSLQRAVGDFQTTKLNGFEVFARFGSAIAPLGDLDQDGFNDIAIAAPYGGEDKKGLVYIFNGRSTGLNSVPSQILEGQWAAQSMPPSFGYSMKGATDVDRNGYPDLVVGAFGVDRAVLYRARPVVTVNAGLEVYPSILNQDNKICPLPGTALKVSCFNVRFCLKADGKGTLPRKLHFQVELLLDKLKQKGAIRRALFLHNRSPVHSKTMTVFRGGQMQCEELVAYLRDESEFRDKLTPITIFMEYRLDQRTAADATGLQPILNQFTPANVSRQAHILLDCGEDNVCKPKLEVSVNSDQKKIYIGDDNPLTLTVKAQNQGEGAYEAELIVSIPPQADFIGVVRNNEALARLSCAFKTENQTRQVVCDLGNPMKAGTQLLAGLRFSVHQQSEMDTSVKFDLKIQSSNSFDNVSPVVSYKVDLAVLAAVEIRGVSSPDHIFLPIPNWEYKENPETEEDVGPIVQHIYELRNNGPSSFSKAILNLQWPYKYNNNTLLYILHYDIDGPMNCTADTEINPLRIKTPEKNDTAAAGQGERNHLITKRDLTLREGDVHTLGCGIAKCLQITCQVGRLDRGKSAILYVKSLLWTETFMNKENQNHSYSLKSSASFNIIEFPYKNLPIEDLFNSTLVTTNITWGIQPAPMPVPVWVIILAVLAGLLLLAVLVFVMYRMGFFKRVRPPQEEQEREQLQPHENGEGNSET

B1: CNTO 95 Fab′ (anti-alpha-V Fab′ made by pepsin cleavage of the parent antibody, reduction and reoxidation), conjugated to MalPEG-DSPE on the surface of … (Fab, V domains shown)
VH: QVQLVESGGGVVQPGRSRRLSCAASGFTFSRYTMHWVRQAPGKGLEWVAVISFDGSNKYYVDSVKGRFTISRDNSENTLYLQVNILRAEDTAVYYCAREARGSYAFDIWGQGTMVTVSS
VL: EIVLTQSPATLSLSPGERATLSCRASQSVSSYLAWYQQKPGQAPRLLIYDASNRATGIPARFSGSGSGTDFTLTISSLEPEDFAVYYCQQRSNWPPFTFGPGTKVDIKR
modifications: free sulfhydryl near the C-terminus conjugated to maleimide-PEG-DSPE inserted in the liposome
Increase (ratio of IC50 of liposome-entrapped doxorubicin to IC50 of 90:1 targeted liposomes), B16-F10 cells: 1 fold

From patent US20090163698A1 (published 2009)
